System: K4 kissing-loop RNA reporter
Assay: apparent KD of K4 kissing-loop reporter; higher = weaker reporter binding
Conditions: Eterna round: R107
Description: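 RNA-MaP round R107: designed RNA switches with theophylline, tryptophan, arginine or FMN aptamers are transcribed on-chip within common flanks. They are titrated with a labelled K4 kissing-loop RNA reporter in RNA-MaP buffer (100 mM Tris pH 7.5, 80 mM KCl, 4 mM MgCl2), without ligand or with the indicated ligand. Median apparent KD per design.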

[1] = input ligand: theophylline 20 uM
[2] = input ligand: tryptophan 2.4 mM
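Further: bound reporter read as fluorescence of individual clusters on recovered sequencing chips by microscopy, with normalized cluster intensities fitted with a binding model.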

| Sequence | apparent KD of K4 kissing-loop reporter (input ligand: FMN 200 uM) [µM] | apparent KD of K4 kissing-loop reporter (input ligand: arginine 13.2 mM) [µM] | apparent KD of K4 kissing-loop reporter (input ligand: none) [µM] | apparent KD of K4 kissing-loop reporter [1] [µM] | apparent KD of K4 kissing-loop reporter [2] [µM] |
| --- | --- | --- | --- | --- | --- |
| UGACAUUGCUCAGAUACCAGUCAUGAGGAUCACCCAUGGGCCAAACGUACAAUAAUAAAUGACCCUUGGCAGCUGAGCAAUGUCU [TheoBX 14] | 0.0645 | 0.0369 | 0.0554 | 0.135 | 0.0628 |
| UGACUACAAAAGGAAUAAUCCUAGUGAUGUUAGGAUAUGCUGAUAAGCAGAAGGAACGGAGAUCGAAAGAUCUCAUAUGUAGUCU [whbob_Ex_FMNA__2th192] | 0.141 | 0.0874 | 0.0828 | 0.0985 | 0.0874 |
| UGACUACAGGAAUAAUAAUCCUAGUGAUGUUAGGAUAUGCUGAUAAGCAGAAGGAACUGAGAUCGAAAGAUCUCAAAAGUAGUCU [FmnAX 28 Mat Inspired #SwitchBubble #StaticStem #K4Early] | 0.139 | 0.0893 | 0.0929 | 0.106 | 0.0967 |
| UGACUGGACUGAAGGAGCGCUAAAACUCCUAGUGAUGUUGGGAAAUAGAGACAAAGUCUCAAGCAGGUAGGUCGCAGUCUAGUCU [ArgBS 23 #SwitchBubble #StaticStem] | 0.166 | 0.2 | 0.163 | 0.197 | 0.169 |
| UGACUGGACUGAAGGAGCGGGCGAGACAAAGUCUCGAACUCCUAGUGAUGUUAGGAAAUAACCCAGGUAGGUCGCAGUCUAGUCU [ArgBS 7 #SwitchBubble #StaticStem #DoubleMagnet] | 0.149 | 0.104 | 0.128 | 0.136 | 0.137 |
| UGACUGGAUGGAAGGAGCGCUAAACUCCUAGUGAUGUUAGGGAUAUGAGGCAAAGCCUUGAGGCAGGUAGGUCGCCAUCUAGUCU [FiskerMod 25 - Jieux - Same State - Arginine B] | 0.191 | 0.117 | 0.131 | 0.141 | 0.145 |
| UGACUUGCCUGAGGAUAUCUAGGAUAUCCAUAAAAGGAAAUAAUAGUUCAGUGAUGUUGGAGAAGGAGAGAAGGCAGGUAAGUCU [KL-XFMN-B18 #DoubleAptamer #SwitchBubble] | 0.671 | 0.514 | 0.493 | 0.737 | 0.448 |
| UGAGGAGAAUAUGAUACCAGCAGAGAGAGAGAGGAAGUAUAGUGAUGUUAUAUGAGAUAAUGCCCUUGGCAGCAUAAGAAGAAGG [#19 K4 Theophylline B Same State] | 0.163 | 0.104 | 0.111 | 0.178 | 0.145 |
| UGAUACCAGACGGCCGCCACUCCUGCAGUCAAAGACUGCUAAAAGGAAAUCGUCCAGUGAUGUUGGAGGACCGGGUCUGGUAUCU [TrypBX 14 #SwitchBubble #Palindromic #StaticStem] | 0.647 | 0.738 | 1.15 | 0.685 | 0.372 |
| UGAUACCAGACGGCCGCCACUCCUGCAGUCAAAGACUGCUAAAGGAAAUUCGUCCAGUGAUGUUGGAGGACCGGGUCUGGUAUCU [TrypBX 13 #SwitchBubble #Palindromic #StaticStem] | 1.1 | 0.753 | 1.07 | 0.81 | 0.48 |
| UGAUACCAGACUGAUACCAGCAAGUGAUGUUUGUUGAUCUAUGCAGUCAAAGACUGCUCUUGCCCUUGGCAGCAGUCUGGUAUCU [TheoBX 28 #SwitchBubble #StaticStem] | 0.762 | 0.64 | 1.04 | 0.409 | 0.777 |
| UGAUACCAGACUGAUACCAGCUAGUGAUGUUAGCUGAAACAGGAACAGGCAAAGCCUGCUAGCCCUUGGCAGCAGUCUGGUAUCU [TheoBX 11 #SwitchBubble #StaticStem] | 0.0915 | 0.0906 | 0.0969 | 0.152 | 0.0853 |
| UGAUAGGACAGAAGGAGCGGAAGUGAUGUUUCCAAAAGGAGAGGUCGACAAAGUCGACCCUUCCAGGUAGGUCGCUGUCCUAUCU [ArgBX 10 #Palindromic #SwitchBubble #StaticStem] | 0.0953 | 0.0835 | 0.0791 | 0.105 | 0.0867 |
| UGAUUGCCAGUGAUGUUGGCAGGGUCUGAAGGAGCGCGUGAAAACGCAGGUAGGUCGCAGUAUGGUGCCAAUUGAUCGAAAGAUC [KL-XArg-A3] | 0.226 | 0.186 | 0.223 | 0.21 | 0.17 |
| UGCAUCAGUGCCUUUGAUCUAUUCCUGGAUACCAGAUCCUACUUGAUCCCUUGGCAGCCAUACGGGAGUGAUGUUCCAUGUAUCC [theeternabot_exclusion_KL_Theo_A_43] | 0.21 | 0.199 | 0.209 | 0.285 | 0.167 |
| UGCGCUGUGUACUGAAAUGUCCUGCGGGAUACCAGAGUCUUUUUAUUCCCUUGGCAGCUUGAGUGAUGUUUGAUGCCGUUCUUGU [frrgmullin] | 0.786 | 0.423 | 0.71 | 0.738 | 0.47 |
| UGGACCUGACUCGAUAAGAGUCAAUGAGAUACCAGUGACGAAAGUCACCCUUGGCAGCUCAACUGCCAGUGAUGUUGGUGGUCCU [#SwitchBubble 2 #StaticStem] | 0.605 | 0.389 | 0.769 | 0.703 | 0.528 |
| UGGAGUUGACGAAAAGUCAACUCCCGAGAAGGAGCGGACGAAAGUCCAGGUAGGUCGCUCACUACCAGUGAUGUUGGUACUUAAA | 0.138 | 0.22 | 0.181 | 0.213 | 0.138 |
| UGGAGUUGACGAAAAGUCAACUCCUGAGAAGGAGCGGACGAAAGUCCAGGUAGGUCGCUCACUACCAGUGAUGUUGGUACUGAAA | 0.187 | 0.228 | 0.203 | 0.229 | 0.164 |
| UGGAUGUAGUGAUGUUAUAUAGAGAGUGAUACCAGUUUAGAGAAGAACCCUUGGCAGCAUAGAAGAGUAUCAUUGGAGAAGAAUG [ExTheophyl.Ar] | 0.308 | 0.347 | 0.32 | 0.334 | 0.244 |

| Sequence | apparent KD of K4 kissing-loop reporter (input ligand: FMN 200 uM) [µM] | apparent KD of K4 kissing-loop reporter (input ligand: arginine 13.2 mM) [µM] | apparent KD of K4 kissing-loop reporter (input ligand: none) [µM] | apparent KD of K4 kissing-loop reporter [1] [µM] | apparent KD of K4 kissing-loop reporter [2] [µM] |
| --- | --- | --- | --- | --- | --- |
| UGGCAAGUGAUGUUUGCGUUUCCGCAGGAUACCAGUCUGUCUUGAGACCCUUGGCAGCCUGGGUACAGUCCAAGCGGUCACACGA [theeternabot_exclusion_KL_Theo_A_38] | 0.371 | 0.297 | 0.405 | 0.375 | 0.285 |
| UGGCGGCAAGGGUUAUUGGAAAGUAUUCGUCGAGGACCGGUACGGCCGCCACUCGAACACCAGUGAUGUUGGUCUGGUUUAAGCU [Exclusion Tryptophan A GF 22] | 0.447 | 0.69 | 0.54 | 0.636 | 0.321 |
| UGUAAGCGCGUAGAUACCAGCAGACGAGUGAUGUUCGAGAGAUUAAGGAAAAGAAAGUGAUGCCCUUGGCAGCUAAUCAUAAGCG [whbob_Ex_Theo_B_sa95] | 0.278 | 0.3 | 0.288 | 0.323 | 0.182 |
| UGUAAGUGUCAGCGAGUGAUGUUCGACGAUACCAGACUCGAUAGAGUCCCUUGGCAGCGUAAUGCAUGCCAAACUGGCACAUACU [#SwitchBubble 11 #K4Early] | 0.453 | 0.438 | 0.56 | 0.528 | 0.434 |
| UGUACCGAGUCAGGAUAUCAACGACUGACAAAGUCGGUCGAAUAUCCAGUGAUGUUGGAAAAUAAAUGAGAAGGGACUUGGUACU [FmnBS 12 #SwitchBubble #StaticStem] | 0.137 | 0.361 | 0.36 | 0.341 | 0.344 |
| UGUACCGAGUCAGGAUAUGCCGUCGAAAGACGAAAGCAGUGAUGUUGCAUCGAUCGAAAGAUCGUUGCAGAAGGGACUUGGUACU [FmnBS 23 #SwitchBubble #StaticStem #DoubleMagnetSystem] | 0.873 | 0.164 | 0.244 | 0.158 | 0.297 |
| UGUACCGAGUCAGGAUAUGGCGUCGAAAGACGAAACCAGUGAUGUUGGAAUCGAUCGAAAGAUCGUCCAGAAGGGACUUGGUACU [FmnBS 21 #SwitchBubble #StaticStem #DoubleMagnetSystem] | 0.204 | 0.382 | 0.377 | 0.349 | 0.359 |
| UGUACUCUGAAAGGAUAUGUGAGCCCUUUUUGUUAGUGAUGUUGACACGGAAACACCAUCAGACUUACAGAAGGUUCGUUGGGUA [theeternabot_sameState_KL_FMN_B_17] | 0.375 | 0.183 | 0.241 | 0.286 | 0.252 |
| UGUAUGUGAUUUGAUACCAGACCAGCUGGUGGUAUCUGAGUGAUGUUCAGGUAGGUUUGGGUCCCUUGGCAGCAAAUCGCAUACU [KL-SSTheoB26] | 0.168 | 0.118 | 0.153 | 0.15 | 0.147 |
| UGUCAUUGGUCGGCCGCCACUUCAUAAAGAGUGAUGUUCUAAAAGACGGAUCGAAAGAUCUGUCGAAGGACCGGGAUCGAUGACU [FiskerMod 11 - Jieux - Same State - Tryptophan B] | 1.2 | 0.559 | 0.998 | 0.569 | 0.275 |
| UGUCAUUGGUCGGCCGCCACUUCGUGUGGAGUGAUGUUUUGUAGAUUGUGUUGAAAGGUAUGGUGAAGGACCGGGACCGAUGACU [FiskerMod 21 - Jieux - Same State - Tryptophan B] | 1.1 | 0.368 | 1.09 | 0.242 | 0.997 |
| UGUCAUUGGUCUGAUACCAGAAGAAAUCUGGAGUGAUGUUCCAAGUACGACAAAAGUCGCUUCCCUUGGCAGCAGACCGAUGACU [TheoBS 21 #SwitchBubble 13 #StaticStem] | 0.705 | 0.51 | 0.638 | 0.406 | 0.683 |
| UGUGAUGUGUAGAGUGAUGUUUUGAAGGAUACCAGAGUGUUGUUAUUCCCUUGGCAGCUUGAGUGAUGUUUGAUGUUGUUGUUGU [efvrmullin] | 0.228 | 0.12 | 0.194 | 0.133 | 0.152 |
| UGUGUUGUGUAGUGUUAUGUUUUGAGGGAUACCAGAGUGUUUUUAUUCCCUUGGCAGCUUGAGUGAUGUUUGAUGUUGUUGUUGU [jlljmullin] | 0.297 | 0.178 | 0.218 | 0.219 | 0.184 |
| UGUGUUUUUUUGAUGUUUGUUGUAAAAUGGCAGGAUAUCGUAGAGGCGAGAAGGGCUUUUAUGCGUUAUGAGUGAUGUUUGUAGG [qqdqmullin] | 0.316 | 0.297 | 0.315 | 0.336 | 0.241 |
| UUACUACCCAGUGAUGUUGGGUAGCGGCCACGAGGACCGGUACGGCCGCCACUCGAGGUUCGGGAGUGAUGUUCCUACUAUUUGG [Same state Tryptophan A GF 6] | 0.328 | 0.341 | 0.36 | 0.402 | 0.16 |
| UUAGAGAUCUCAGGAUAUCAGUGAUGUUGGUAUCAAGAUCUGAGAUAGAAUUCUAUCUCAGAUCAAUGAGAAGGGAGAUCUCAUU [AK3.3 Exc FMN B] | 0.374 | 0.11 | 0.105 | 0.176 | 0.118 |
| UUAGCCUAGCCAUAGUGAUGUUGUGGAAUACGAGGACCGGUACGGCCGCCACUCGCUCGACGGUGAUGACAUCAACGACCUUUAU [theeternabot_sameState_KL_Trp_A_38] | 0.311 | 0.304 | 0.311 | 0.314 | 0.285 |
| UUAGCGACAAGUCAGAUUCUGACAAUUGAUACCAGAUAGAAUUCUAUCCCUUGGCAGCAGUGAUGUUGUUGCAAUAAGUCGCAUU [AK2 Exc Theophylline A] | 0.322 | 0.253 | 0.317 | 0.282 | 0.266 |
| UUAGCUCUAUAGAGCAAGAGGUCAACUGAUACCAGAGGCUAUAGCCUCCCUUGGCAGCGGAACGAGUGAUGUUCGAGACCUCAUU [AK6 SS Theophylline A] | 1.28 | 0.816 | 1.56 | 0.75 | 1.44 |

— the supplement of paper PMC9170038
